Measured values reported in patent publication US20090307790.

Columns and labels:
[1] = target: Rac1, produced as GST-fusion protein in E. coli BL21 [GST: P08515]
[2] = target: RhoA, produced as GST-fusion protein in E. coli BL21 [GST: P08515]
[3] = target: cdc42, produced as GST-fusion protein in E. coli BL21 [GST: P08515]

B1: catalytic domain of wild type Tagap1, produced as GST-fusion protein in E. coli BL21 (protein)
chain: QPLSIICGENDTLPRPIQDILTILCLKGPSTEGIFRKAASEKARKELKEGLNCGVSVNLKQLPVHLLAVVFKDFLRGIPLKLLSCDLFEDWMGALEKPTEEDRIEALKQVAGGLPRPNLLLLRHLLYVLHLISKNAEVNKMDSSNLAICIGPNMLTLKNDQSLSFQAQKDLNNKVKILVEFLIDNCFEIF
GTPase activity of Rac1 (in vitro GAP assay) [1]: hardly (Rac1) stimulated | GTPase activity of RhoA (GAP-activity assay, FIG. 2e) [2]: Tagap1 enhances the GTPase activity of RhoA | GTPase activity of RhoA (in vitro GAP assay) [2]: the GTPase activity of RhoA was strongly enhanced by the GAP domain of Tagap1 | GTPase activity of Cdc42 (in vitro GAP assay) [3]: only mildly (Cdc42) ... stimulated
